We go through five molecules from paper PMC5501724, “Structural Basis for Specific Interaction of TGFβ Signaling Regulators SARA/Endofin with HD-PTP” (Structure(London, England:1993), 2017).

For test [1], the target named is T1, His6-HD-PTP_(Bro1) (1-361) (human, UniProt Q9H3S7 1-361).
T1 construct: HD-PTP/PTPN23, Bro1 domain, residues 1-361; Immobilised by its His6 tag on the HTE chip; also called HD-PTP Bro1 domain; source: E. coli BL21 (DE3), purified (Nickel-beads, MonoQ, Superdex 200); not shown: His6, N-terminal, kept
T1 sequence (looked up): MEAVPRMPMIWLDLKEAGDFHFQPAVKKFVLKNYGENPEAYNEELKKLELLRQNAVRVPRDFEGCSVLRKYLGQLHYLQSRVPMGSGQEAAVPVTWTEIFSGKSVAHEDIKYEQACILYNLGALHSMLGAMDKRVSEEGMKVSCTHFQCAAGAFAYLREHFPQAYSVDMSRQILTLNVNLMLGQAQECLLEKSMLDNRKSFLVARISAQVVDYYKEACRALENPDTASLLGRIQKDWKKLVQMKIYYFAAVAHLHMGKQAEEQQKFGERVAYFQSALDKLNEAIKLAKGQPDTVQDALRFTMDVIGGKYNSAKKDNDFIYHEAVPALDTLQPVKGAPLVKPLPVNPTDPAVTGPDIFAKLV
Kind of test: SPR; ProteOn XPR36; His6-tagged proteins immobilised on a HTE chip (5000-8000 RU); synthetic peptides as analytes, five concentrations; 10 mM HEPES pH 7.4, 150 mM NaCl, 0.05% Tween 20; 25°C; equilibrium binding fit. The note with it: both partners purified.

The target in test [2] is T2, His6-HD-PTP_(Bro1-CC) (1-714), bacterially expressed (human, UniProt Q9H3S7 1-714).
T2 construct: HD-PTP/PTPN23, Bro1 and coiled-coil domains, residues 1-714; also called His-HD-PTP; source: E. coli BL21 (DE3), purified (Nickel-beads, MonoQ, Superdex 200); not shown: His6, N-terminal, kept
T2 sequence (looked up): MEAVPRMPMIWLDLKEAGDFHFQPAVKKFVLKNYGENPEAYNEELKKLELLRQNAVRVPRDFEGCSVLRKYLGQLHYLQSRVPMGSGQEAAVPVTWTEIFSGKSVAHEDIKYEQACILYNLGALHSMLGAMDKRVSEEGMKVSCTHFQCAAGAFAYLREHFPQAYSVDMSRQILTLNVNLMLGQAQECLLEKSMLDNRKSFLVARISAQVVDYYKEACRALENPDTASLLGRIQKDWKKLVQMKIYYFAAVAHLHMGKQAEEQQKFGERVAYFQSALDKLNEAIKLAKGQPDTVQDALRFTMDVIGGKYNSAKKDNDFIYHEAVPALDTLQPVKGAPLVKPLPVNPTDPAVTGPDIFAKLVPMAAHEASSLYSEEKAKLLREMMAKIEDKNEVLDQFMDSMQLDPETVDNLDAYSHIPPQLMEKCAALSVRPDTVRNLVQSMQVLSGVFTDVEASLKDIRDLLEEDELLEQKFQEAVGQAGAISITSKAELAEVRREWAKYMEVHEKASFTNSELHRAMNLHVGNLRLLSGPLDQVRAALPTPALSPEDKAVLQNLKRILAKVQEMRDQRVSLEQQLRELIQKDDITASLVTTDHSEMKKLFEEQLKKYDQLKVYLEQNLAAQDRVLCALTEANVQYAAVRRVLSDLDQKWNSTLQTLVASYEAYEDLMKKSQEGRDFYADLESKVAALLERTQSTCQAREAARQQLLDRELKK
The description is as above. The settings on record: both partners purified.

For a further test, the target named is T3, Endofin (Homo sapiens (Human), UniProt Q7Z3T8).
T3 chain: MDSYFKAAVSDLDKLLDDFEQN
The test can be described thus: SPR equilibrium, peptide analyte.

Test [3] concerns the target T2, His6-HD-PTP_(Bro1-CC) (1-714), …. Kind of test: co-IP; competition: GST-CHMP4B and His6-HD-PTP Bro1-CC as in the CHMP4B binding experiments, endofin 22-mer peptide (WT or L15P) added at 20 μM; immunoprecipitation with anti-His. The settings on record: both partners purified.
Test [4] addresses T4, His6-HD-PTP_(Bro1-CC) T145K, bacterially expressed (human, UniProt Q9H3S7 1-714, T145K).
T4 construct: HD-PTP/PTPN23, residues 1-714 with T145K; source: E. coli, bacterially expressed, purified; not shown: His6, N-terminal, kept
T4 sequence (looked up): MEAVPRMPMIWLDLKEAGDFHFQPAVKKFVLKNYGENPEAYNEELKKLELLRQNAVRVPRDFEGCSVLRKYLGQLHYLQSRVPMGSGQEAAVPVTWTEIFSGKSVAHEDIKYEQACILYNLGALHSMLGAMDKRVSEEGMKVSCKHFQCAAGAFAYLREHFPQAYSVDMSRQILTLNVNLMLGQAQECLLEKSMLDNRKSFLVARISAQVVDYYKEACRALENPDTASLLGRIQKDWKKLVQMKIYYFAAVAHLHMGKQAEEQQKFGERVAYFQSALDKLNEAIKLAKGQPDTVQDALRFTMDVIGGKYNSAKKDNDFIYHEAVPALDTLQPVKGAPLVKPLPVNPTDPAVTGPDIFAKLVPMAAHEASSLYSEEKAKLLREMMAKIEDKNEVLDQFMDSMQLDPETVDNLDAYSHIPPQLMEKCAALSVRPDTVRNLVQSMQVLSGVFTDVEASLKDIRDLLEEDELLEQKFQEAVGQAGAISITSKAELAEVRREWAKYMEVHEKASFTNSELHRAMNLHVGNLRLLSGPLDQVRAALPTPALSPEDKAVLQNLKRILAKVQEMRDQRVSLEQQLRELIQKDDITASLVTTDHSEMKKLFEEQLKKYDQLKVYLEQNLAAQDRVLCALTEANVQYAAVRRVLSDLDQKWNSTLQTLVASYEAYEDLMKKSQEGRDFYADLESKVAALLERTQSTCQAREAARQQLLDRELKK
Kind of test: co-IP; bacterially expressed GST-CHMP4B, full length or truncated (50 μg/ml), and His6-HD-PTP Bro1-CC (5 μg) in 200 μl IP2 buffer with 250 mM NaCl, 2 h at 4°C; immunoprecipitation with anti-His. The settings on record: both partners purified.

For orientation: Kd means the free concentration of one partner at which half of the binding sites on the other are occupied at equilibrium, for simple one-to-one binding. High values mean a looser complex, low ones a tighter complex.

Values joined by “and” are separate entries in the source; they are usually repeats but may differ in a detail not shown here. Equal values may be shown once.

B1: shorter endofin peptide lacking 1-MDSYF-5 (peptide)
chain: KAAVSDLDKLLDDFEQN
modifications: C-terminal limit not given; taken as residue 22, the end of the 22-mer endofin peptide
Regarding B1, the Kd in test [1] and in test [2] was over 1500 µM in each case.

B2: ALIX_Bro1 (protein)
chain: MATFISVQLKKTSEVDLAKPLVKFIQQTYPSGGEEQAQYCRAAEELSKLRRAAVGRPLDKHEGALETLLRYYDQICSIEPKFPFSENQICLTFTWKDAFDKGSLFGGSVKLALASLGYEKSCVLFNCAALASQIAAEQNLDNDEGLKIAAKHYQFASGAFLHIKETVLSALSREPTVDISPDTVGTLSLIMLAQAQEVFFLKATRDKMKDAIIAKLANQAADYFGDAFKQCQYKDTLPKEVFPVLAAKHCIMQANAEYHQSILAKQQKKFGEEIARLQHAAELIKTVASRYDEYVNVKDFSDKINRALAAAKKDNDFIYHDRVPDLKDLDPIGKATLVKSTPVNVPISQKFTDLFEKMV
The molecule B2 showed a Kd in the test with Endofin of over 12.5 µM.

B3: SARA 22-mer peptide (N-terminal 22 residues of SARA) (peptide, UniProt O95405 1-22, looked up)
peptide: MENYFQAEAYNLDKVLDEFEQN
notes: human SARA, N-terminal 22 residues; also called SARA peptide; equivalent region of SARA; source: synthetic peptide (Generon Ltd, UK)
On to B3, for which the affinity in test [1], expressed as Kd, was 11.3 µM.
As to QRAEEEDDDIKQLAAWAT [CHMP4C C-terminal peptide], in test [1], the Kd is 89 µM and 88 µM.

B4: GST-CHMP4B (1-224), bacterially expressed (natural protein, human, UniProt Q9H444 1-224, looked up)
chain: MSVFGKLFGAGGGKAGKGGPTPQEAIQRLRDTEEMLSKKQEFLEKKIEQELTAAKKHGTKNKRAALQALKRKKRYEKQLAQIDGTLSTIEFQREALENANTNTEVLKNMGYAAKAMKAAHDNMDIDKVDELMQDIADQQELAEEISTAISKPVGFGEEFDEDELMAELEELEQEELDKNLLEISGPETVPLPNVPSIALPSKPAKKKEEEDDDMKELENWAGSM
notes: CHMP4B, residues 1-224, full length; In pGEX-4T1; also called CHMP4B-FL; full length GST-CHMP4B; source: E. coli C41 (DE3), purified (GSTrap HP)
Regarding B4, the binding result in test [3] and in test [4] was “binds” in each case.
